Tests used:
[1] = target: T1, Arabidopsis thaliana DECREASE IN DNA …ON 1 (DDM1), full length (Arabidopsis thaliana, UniProt Q9XFH4 1-764); assay: cross-linking; nucleosomes (0.2 µM) with AtDDM1 (0.4 µM), 60 mM NaCl, 1 mM MgCl2, 1 mM ADP, pH 7.5, 25 °C; 1.6 mM DSS-H12/D12 (lysine-lysine), LC-MS/MS, xQuest/xProphet; conditions: both partners purified
T1 construct: DDM1, Snf2-type chromatin remodeling factor, Arabidopsis thaliana, full length; His6-SUMO removed with HRV 3C protease; also called AtDDM1; source: E. coli BL21(DE3) Codon(+) RIL, purified (Ni-NTA, RESOURCE Q flow-through, RESOURCE S, Superdex 200); not shown: His6, N-terminal, cleaved; SUMO, N-terminal, cleaved

[2] = target: T2, Arabidopsis thaliana histone H3.1 (Arabidopsis thaliana, UniProt P59226 1-136); assay: as above; conditions: both partners purified
T2 construct: His6 tag removed with thrombin (pET-15b); also called AtH3.1; source: E. coli BL21(DE3) Codon(+) RIL, purified (Ni-NTA and SP cation exchange, denaturing); in reconstituted nucleosomes; not shown: His6, N-terminal, cleaved

T1 sequence (Q9XFH4 whole entry): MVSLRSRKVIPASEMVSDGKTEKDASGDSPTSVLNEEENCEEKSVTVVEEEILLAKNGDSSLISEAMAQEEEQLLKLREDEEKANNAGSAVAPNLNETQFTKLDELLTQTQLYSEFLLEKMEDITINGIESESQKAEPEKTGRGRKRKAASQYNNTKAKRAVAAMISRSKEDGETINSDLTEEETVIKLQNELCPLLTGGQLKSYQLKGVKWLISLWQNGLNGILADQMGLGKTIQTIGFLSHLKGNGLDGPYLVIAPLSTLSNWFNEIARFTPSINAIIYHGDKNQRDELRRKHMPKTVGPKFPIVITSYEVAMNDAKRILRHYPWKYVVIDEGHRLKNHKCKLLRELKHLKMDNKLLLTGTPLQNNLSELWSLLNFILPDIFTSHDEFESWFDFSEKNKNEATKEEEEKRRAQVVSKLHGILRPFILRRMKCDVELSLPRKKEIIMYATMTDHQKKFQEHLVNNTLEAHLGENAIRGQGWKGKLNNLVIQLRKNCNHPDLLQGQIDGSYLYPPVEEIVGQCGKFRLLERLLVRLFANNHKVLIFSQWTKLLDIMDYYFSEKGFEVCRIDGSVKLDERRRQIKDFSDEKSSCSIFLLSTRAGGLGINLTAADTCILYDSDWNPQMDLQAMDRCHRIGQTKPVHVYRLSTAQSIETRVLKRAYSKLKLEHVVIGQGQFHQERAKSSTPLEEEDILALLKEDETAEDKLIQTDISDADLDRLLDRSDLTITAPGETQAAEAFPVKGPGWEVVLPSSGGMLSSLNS

B1: Arabidopsis thaliana histone H2A.W.6 (natural protein)
chain: MESTGKVKKAFGGRKPPGAPKTKSVSKSMKAGLQFPVGRITRFLKKGRYAQRLGGGAPVYMAAVLEYLAAEVLELAGNAARDNKKSRIIPRHLLLAIRNDEELGKLLSGVTIAHGGVLPNINSVLLPKKSATKPAEEKATKSPVKSPKKA
notes: His6 tag removed with thrombin (pET-15b); also called AtH2A.W; AtH2A.W.6; source: E. coli BL21(DE3) Codon(+) RIL, purified (Ni-NTA and SP cation exchange, denaturing); in reconstituted nucleosomes; not shown: His6, N-terminal, cleaved
binding result [1]: binds
binding result [2]: binds

Source: article PMC11239853, “Molecular and structural basis of the chromatin remodeling activity by Arabidopsis DDM1” (Nature Communications, 2024)
